Measured values taken from patent publication US20220220200A1 (NANJING IASO BIOTECHNOLOGY, published 2022).

B1: #62 scFv phage antibody clone (scFv)
scFv: QSVVTQPPSVSGAPGQRVTISCTGSSSNIGAGYDVHWYQQLPGTAPKLLIYENTNRPSGVPDRFSGSKSGTSASLAITGLQAEDEADYYCQSYDSSLSGWRVFGGGTKLTVLGSRGGGGSGGGGSGGGGSLEMAEVQLVQSGAEVKKPGESLKISCKGSGYSFTNSWIGWVRQMPGKGLEWMGLIYPDDSDTRYSPSFQGQVTISADSAINTAYLQWSSLKASDTAMYYCARQSTYIYGGYYDTWGQGTLVTVSS
notes: The phage coat fusion is not described; also called clone #62; phage #62
B2: #78 scFv phage antibody clone (scFv)
scFv: QAVLTQPPSVSEAPRQRVTISCSGSSSNIGNNAVSWYQQLPGKAPKLLIYYDDLLPSGVSDRFSGSKSGTSASLAISGLQSEDEADYYCAAWDDSLNGWVFGGGTKVTVLGSRGGGGSGGGGSGGGGSLEEVQLVQSGAEVKKPGESLKISCKGSGYSFTSYWIGWVRQMPGKGLEWMGIIYPGDSDTRYSPSFQGQVTISADKSISTAYLQWSSLKASDTAMYYCARLSYSWSSWYWDFWGQGTLVTVSS
notes: The phage coat fusion is not described; also called clone #78; phage #78

Legend:
Streptavidin = biological target: T1, Streptavidin (UniProt P22629 37-163, limits assumed); test: phage ELISA, streptavidin-coated plate
T1 construct: Plate coating in the phage ELISA, tested as a control antigen; also called Strepavidin
T1 sequence (P22629 37-163 limits assumed): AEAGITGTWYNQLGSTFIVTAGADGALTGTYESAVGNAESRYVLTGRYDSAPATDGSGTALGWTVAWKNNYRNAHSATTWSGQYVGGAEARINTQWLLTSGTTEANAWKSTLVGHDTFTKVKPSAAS
Description: (§1) In ELISA preliminary screening, the streptavidin-biotin binding allowed the biotinylated target protein (CD19-hFc-Bio) and the control protein (BCMA-hFc-Bio) to be closer to native antigen conformation in the reaction solution. Clones that only bound to CD19-hFc-Bio but not to BCMA-hFc-Bio and streptavidin were considered specific. The FACS preliminary screening was performed using a cell line Raji with high expression of CD19 and Raji-CD19ko with knockout of CD19 molecules, and clones that only bind to Raji cells but not to Raji-CD19ko cells were considered specific. Through the two preliminary screenings based on ELISA and FACS respectively, we could obtain candidate antibodies that can not only bind to the recombinantly expressed CD19 protein but also recognize the native CD19 molecules on the cell surface for further screening.
(§2) Monoclonal antibodies were randomly selected from the enriched phage antibody pool, packaged into phages, and the binding of the monoclonal phage to CD19-hFc-Bio protein and BCMA-hFc-Bio protein was detected by phage ELISA to find CD19-specific phage antibody clones. Control 1 is FMC-63 ([…] anti-human CD19 phage antibody clone); and control 2 is non-CD19-bound scFv phage antibody clone. […]

[1] = biological target: T2, Biotinylated Human BCMA/TNFRSF17 Protein, Fc Tag, Avi Tag (BCMA-hFc-Bio) (human, UniProt Q02223 1-54, biotinylated (Avitag)); test: phage ELISA, biotinylated antigen on streptavidin plate
T2 construct: Bought protein; also called control antigen BCMA; unrelated antigen BCMA; not shown: Fc tag (hFc) and Avi tag
T2 sequence (looked up): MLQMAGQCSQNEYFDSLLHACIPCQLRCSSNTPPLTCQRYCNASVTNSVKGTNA
Description: as §1, §2

Binder | binding result (Streptavidin) | binding result [1]
B1 | no binding | no binding
B2 | no binding | no binding
